Measured values taken from patent US20200024330A1.

Legend:
Test in all cases: cell-based or functional assay
[1] = biological target: aMLV envelope protein on pseudovirus (aMLV)
[2] = biological target: HIV-1 MGRM-F1-013 Env (pseudovirus) (HIV-1)
[3] = biological target: HIV-1 IAVI-C18 envelope glycoprotein (Env) on pseudovirus (HIV-1)
[4] = biological target: HIV-1 93IN905 envelope protein (Env) on pseudotyped virus (HIV-1 isolate 93IN905)
[5] = biological target: HIV-1 92TH021 envelope protein (Env) on pseudotyped virus (HIV-1 isolate 92TH021)
[6] = biological target: HIV-1 JR-CSF envelope protein (Env) on pseudotyped virus (HIV-1 isolate JR-CSF) (UniProt P20871)
[7] = biological target: HIV-1 IAVI_C22 envelope protein (Env) on pseudotyped virus (HIV-1 isolate IAVI C22)
[8] = biological target: HIV-1 APV-6 envelope glycoprotein (Env) on pseudovirus (HIV-1)
[9] = biological target: HIV-1 Env of isolate 93MW959 (pseudovirus) (HIV-1 isolate 93MW959, subtype C)
[10] = biological target: HIV-1 Env of isolate MG RM-AG-006 (HIV-1)
[11] = biological target: HIV-1 MGRM-D-001 envelope glycoprotein (Env) on pseudovirus (HIV-1)
[12] = biological target: HIV-1 Env of isolate MG RM-AG-008 (HIV-1)
[13] = biological target: HIV-1 APV13 envelope glycoprotein (Env) on pseudovirus (HIV-1)
[14] = biological target: HIV-1 Env of isolate MG RM-AG-013 (HIV-1)

Sequence of 1443_C16 (PG16) (TCN-116) (antibody) (VH): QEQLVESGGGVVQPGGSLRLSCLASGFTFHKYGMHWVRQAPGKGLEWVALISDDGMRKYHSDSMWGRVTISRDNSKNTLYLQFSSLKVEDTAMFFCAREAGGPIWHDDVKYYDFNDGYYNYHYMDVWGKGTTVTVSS
Sequence of 1443_C16 (PG16) (TCN-116) (antibody) (VL): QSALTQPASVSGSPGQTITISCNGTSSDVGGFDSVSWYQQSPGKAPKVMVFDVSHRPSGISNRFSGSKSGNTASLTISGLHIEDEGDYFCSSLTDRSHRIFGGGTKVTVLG

2F5 (antibody) showed an IC90 (pseudovirus neutralization) [1] of over 50 µg/mL and an IC50 (µg/ml), pseudovirus neutralization [2] of 4.57 µg/mL.
Substance 2G12 (antibody) has an IC90 (pseudovirus neutralization) [3] of over 50 µg/mL, an IC90 (pseudovirus neutralization) [1] of over 50 µg/mL and an IC50 (µg/ml), pseudovirus neutralization [2] of over 50 µg/mL.
With 4E10 (antibody) the IC90 (pseudovirus neutralization) [3] was over 50 µg/mL and the IC90 (pseudovirus neutralization) [1] was over 50 µg/mL.
In the case of 1443_C16 (PG16) (TCN-116) (antibody), the IC50, pseudovirus neutralization, 1 hour Virus/Ab Incubation [4] is reported as 0.33 µg/mL, the IC50, pseudovirus neutralization, 18 hour Virus/Ab Incubation [4] is reported as 0.255 µg/mL and the IC90 (pseudovirus neutralization) [3] is reported as 0.207 µg/mL. For the same substance, the IC50, pseudovirus neutralization, 1 hour Virus/Ab Incubation [5] was 0.136 µg/mL, the IC50, pseudovirus neutralization, 18 hour Virus/Ab Incubation [5] was 0.0435 µg/mL and the IC90 (pseudovirus neutralization) [1] was over 50 µg/mL. It also gave an IC50, pseudovirus neutralization, 1 hour Virus/Ab Incubation [6] of under 0.0025 µg/mL, an IC50, pseudovirus neutralization, 18 hour Virus/Ab Incubation [6] of under 0.0025 µg/mL and an IC50, pseudovirus neutralization, 1 hour Virus/Ab Incubation [7] of 0.114 µg/mL. For the same substance, the IC50, pseudovirus neutralization, 18 hour Virus/Ab Incubation [7] was 0.106 µg/mL and the IC90 (pseudovirus neutralization) [8] was 44.3 µg/mL.
1495_C14 (PGC14) (antibody) showed an IC50, pseudovirus neutralization, 1 hour Virus/Ab Incubation [4] of over 50 µg/mL, an IC50, pseudovirus neutralization, 18 hour Virus/Ab Incubation [4] of 0.146 µg/mL and an IC50, pseudovirus neutralization, 1 hour Virus/Ab Incubation [5] of over 50 µg/mL. It also gave an IC50, pseudovirus neutralization, 18 hour Virus/Ab Incubation [5] of over 50 µg/mL, an IC50, pseudovirus neutralization, 1 hour Virus/Ab Incubation [6] of over 50 µg/mL and an IC50, pseudovirus neutralization, 18 hour Virus/Ab Incubation [6] of over 50 µg/mL. For the same substance, the IC50 (µg/ml), pseudovirus neutralization [2] was 6 µg/mL, the IC50, pseudovirus neutralization, 1 hour Virus/Ab Incubation [7] was over 50 µg/mL and the IC50, pseudovirus neutralization, 18 hour Virus/Ab Incubation [7] was 13.4 µg/mL.
With 4858_P08 (PGT-123) (antibody) the IC50 (µg/mL) neutralization [9] was 0.011 µg/mL, the neutralization IC50 [10] was 0.014 µg/mL and the IC50 (ug/ml), neutralizing activity [11] was 0.215 µg/mL. The IC50, pseudovirus neutralization [11] was 0.215 µg/mL, the IC80, pseudovirus neutralization [11] was 0.678 µg/mL and the IC90 (pseudovirus neutralization) [11] was 1.31 µg/mL. The IC95, pseudovirus neutralization [11] was 2.33 µg/mL, the neutralization IC50 [12] was 19.2 µg/mL and the IC50 (ug/ml), neutralizing activity [13] was 0.222 µg/mL. The IC50, pseudovirus neutralization [13] was 0.222 µg/mL, the IC80, pseudovirus neutralization [13] was 0.879 µg/mL and the IC90 (pseudovirus neutralization) [13] was 1.87 µg/mL. The IC95, pseudovirus neutralization [13] was 3.5 µg/mL and the neutralization IC50 [14] was 3.37 µg/mL.
4877_D15 (PGT-122) (antibody) was tested, and the IC50 (µg/mL) neutralization [9] was 0.016 µg/mL, the neutralization IC50 [10] was 0.028 µg/mL and the IC50 (ug/ml), neutralizing activity [11] was 0.867 µg/mL. It also gave a neutralization IC50 [12] of over 50 µg/mL, an IC50 (ug/ml), neutralizing activity [13] of 0.992 µg/mL and a neutralization IC50 [14] of 0.521 µg/mL.
For 5123_A06 (PGT-125) (antibody), the IC50 (µg/mL) neutralization [9] was 37.5 µg/mL, the neutralization IC50 [10] was 0.008 µg/mL and the IC50 (ug/ml), neutralizing activity [11] was 2.31 µg/mL. For the same substance, the neutralization IC50 [11] was 2.31 µg/mL, the neutralization IC80 [11] was over 10 µg/mL and the neutralization IC90 [11] was over 10 µg/mL. For the same substance, the neutralization IC95 [11] was over 10 µg/mL, the neutralization IC50 [12] was over 50 µg/mL and the IC50 (ug/ml), neutralizing activity [13] was 0.0128 µg/mL. It also gave a neutralization IC50 [13] of 0.0128 µg/mL, a neutralization IC80 [13] of 0.0414 µg/mL and a neutralization IC90 [13] of 0.0821 µg/mL. The neutralization IC95 [13] was 0.154 µg/mL and the neutralization IC50 [14] was 0.004 µg/mL.
